# Experimental data reported in patent publication US20170291930.
# Tests used:
# [1] = tested on: T1, Hst-5 synthetic peptide K13L
# T1 sequence: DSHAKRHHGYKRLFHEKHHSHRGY
# [2] = tested on: T2, Hst-5 synthetic peptide K17L
# T2 sequence: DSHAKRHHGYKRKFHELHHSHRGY
# [3] = tested on: T3, Hst-5 synthetic peptide K17R
# T3 sequence: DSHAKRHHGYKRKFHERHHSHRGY
substance,measurement,setting,value
purified recombinant Sap9 (C. albicans secreted aspartic protease 9),cleavage site preference of Sap9 (mass spectrometry),[1],K13L showed an apparent shift in cleavage site preference compared to the parent Hst-5. The fragments containing amino acids 1-12 and 13-24 had higher signals for K13L than the fragments containing amino acids 1-17 and 18-24
same,cleavage at the C-terminal side of residue 17 by Sap9 (mass spectrometry),[2],"while the parent Hst-5 was cleaved on the C-terminal side of K17, neither K17R nor K17L showed significant cleavage at this site"
same,cleavage at the C-terminal side of residue 17 by Sap9 (mass spectrometry),[3],"while the parent Hst-5 was cleaved on the C-terminal side of K17, neither K17R nor K17L showed significant cleavage at this site"
